Results on 19 sequences are retold here after a protein production outcome set (Wang et al. 2014).

The series in a line: label from the status in PepcDB records.
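Also: failed if final PepcDB status was selected cloned or expressed and not failed if soluble or beyond.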

“MAQRGDPPPLRQYVAVRARLVGSGLVVGLLLGGLGMAGWTLYTGDARSSEATVFALGAMVFGFGLLGWSGSILAGRGIEAMQEHMDTRSNWTERDSRRAMARLCGGGGGIMVGTSVVAALL”: the protein production entry is given as “failed”.

On to “MAQRIFTLILLLCSTSVFAGLFDAPGRSQFVPADQAFAFDFQQNQHDLNLTWQIKDGYYLYRKQIRITPEHAKIADVQLPQGVWHEDEFYGKSEIYRDRLTLPVTINQASAGATLTVTYQGCADAGFCYPPETKTVPLSEVVANNAAPQPVSVPQQEQPTAQLPFSALWALLIGIGIAFTPCVLPMYPLISGIVLGGKQRLSTARALLLTFIYVQGMALTYTALGLVVAAAGLQFQAALQHPYVLIGLAIVFTLLAMSMFGLFTLQLPSSLQTRLTLMSNRQQGGSPGGVFVMGAIAGLICSPCTTAPLSAILLYIAQSGNMWLGGGTLYLYALGMGLPLMLITVFGNRLLPKSGPWMEQVKTAFGFVILALPVFLLERVIGDVWGLRLWSALGVAFFGWAFITSLQAKRGWMRIVQIILLAAALVSVRPLQDWAFGATHTAQTQTHLNFTQIKTVDELNQALVEAKGKPVMLDLYADWCVACKEFEKYTFSDPQVQKALADTVLLQANVTANDAQDVALLKHLNVLGLPTILFFDGQGQEHPQARVTGFMDAETFSAHLRDRQP”, for which the protein production result is “failed”. The entry for “MAQRQPHSPNQTLISITNDTESSSSVVSNDNTNKGWSGDNSPGIEALCAIYITYAVIISVGILGNAILIKVFFKTKSMQTVPNIFITSLAFGDLLLLLTCVPVDATHYLAEGWLFGRIGCKVLSFIRLTSVGVSVFTLTILSADRYKAVVKPLERQPSNAILKTCVKAGCVWIVSMIFALPEAIFSNVYTFRDPNKNMTFESCTSYPVSKKLLQEIHSLLCFLVFYIIPLSIISVYYSLIARTLYKSTLNIPTEEQSHARKQIESRKRIARTVLVLVALFALCWLPNHLLYLYHSFTSQTYVDPSAMHFIFTIFSRVLAFSNSCVNPFALYWLSKSFQKHFKAQLFCCKAERPEPPVADTSLTTLAVMGTVPGTGSIQMSEISVTSFTGCSVKQAEDRF” is “failed”.

Take “MAQRVQLTATVSENQLGQRLDQALAEMFPDYSRSRIKEWILDQRVLVNGKVCDKPKEKVLGGEQVAINAEIEEEARFEPQDIPLDIVYEDEDIIIINKPRDLVVHPGAGNPDGTVLNALLHYYPPIADVPRAGIVHRLDKDTTGLMVVAKTVPAQTRLVESLQRREITREYEAVAIGHMTAGGTVDEPISRHPTKRTHMAVHPMGKPAVTHYRIMEHFRVHTRLRLRLETGRTHQIRVHMAHITHPLVGDPVYGGRPRPPKGASEAFISTLRKFDRQALHATMLRLYHPISGIEMEWHAPIPQDMVELIEVMRADFEEHKDEVDWL”: the protein production result is given as “not failed”. Consider “MAQTCSILYIPYMLLLSSLFAAGIATITEGELLSSMIGVQGLIYCKRGSKLTPIQGAVARVTCERTDEYGYEAEDVTVLSQATDAKGYFLATLSSSEVKDYKKVIKIKECRAFLELSPSDTCSFPTEINRGISGAILQNYRLLENKLKMKLFTVGPFVFSSEETQDKSIPNGY”, for which the protein production entry is reported as “failed”. To “MARDNENILEEWCLIESNPCIFYDMLKRMGATEISVEDVYSLSYFDDYINNKEIINMNHILGVDTYLGENNKTLDKENNVVDVIELYKNNICMEDKYNKLLKHHSYIYGIIFLFNIGKHYKNNKYIEHNVPDNLFFAKQVIPNACATQAILSIVLNKDIELNDEIKNIKTFSLNFDSSMKGLTLSNCTFLRNIHNSYKPPIYLDKEDVHHDKKKSEDSFHFVSYISFQDKVYLLDGLQSGPVLINADEQNKPNPNNNNNNKDNDNDNNNNNNNNNNNNNNNNNNNNNNNNNNIGMNGKDWIEISREHIKKEIDEICNSQTNNDVRFNIIAVMKDKEYIIQEYINIHRIVKQRVNIKLINLGENIELSDEINEDEFPLLNDIPSIENLPNNVDTLYNIVNKSTLEINYLQSLLHEQKEIKKLWNIELTFKFFNFYPFIMSSLNLMAKHKLLKDAYQKEKLKNATKS” belongs “failed”.

Regarding “MARIDHVGLMVKDIDASIAFYQNVIGMTLKGRMTHTNGVMKLAFLGFENRDETELELIEGYNDNLPQEGKVHHFAVSTDDIEAEFDRVKGAGIKLMEDEITVLPNGFRYFFLFGPEGEMVEFFQRT”, the protein production entry is listed as “failed”.

Take “MARILKKNKNELLDILEDYMTDCKYRDLRRTTIRAYEQSLRLLFKFLEDDYKVIYVEDVKEEHIRNYIDFTKERGKYSYVANENNINSNVPQNRGDFGKKVSLCTLDNYLGNIKMFFTWCKDNKLISKDPSFKIKRIKYSRKAKAEITIDEFNKLLKSLDLTLFSEYRDYIVIQLLMDTGMRVGECLELREEDIDIRNKTIFISGEIAKGRRDRYVFFSNTMQRMLQKWLNYKDRYVESNYIFVTNRGGKYQVHSFEKHMRNYLKKAKIDKQITPHTLRNNFAKRFLMSGGDIYTLSRLLGHSDIRTTQSAYLDLTTSDIRKNYLKFSPLENMKKKNW”: the protein production result is reported as “failed”. To “MARKIGSRYTAHQILGRGSAGTVWLGEGPDGPVAIKLLREDLASDQELVSRFVQERTALLGLDHPHVVSVRDLVVDGNDLALVMDLVRGTDLRTRLDRERRLAPEAAVAVVADVADGLAAAHAAGVVHRDVKPENVLLDMQGPLGPGGSHPALLTDFGVAKLIDTPRRTRATKIIGTPDYLAPEIVEGLPPRAAVDIYALATVLYELLAGFTPFGGGHPGAVLRRHVTETVVPLPGIPDELWQLLVQCLAKAPASRLRASELSARLRELLPMLAGMAPLDVDEPDAEQPEDAPDASAASPAAPVSTAEPVRRRGAVPLVPGAKPADSNRDTHTSMRVPAPDELAGGARGTARAPRASGAPRPGSARNRAATRRRRIAVGAGAVALVAAIGVGTWLATGGDEDGGGPQDTRNSAPAAP” belongs “failed”; to “MARKRLIIEMGMGIDQHGQEPTIAASRAVRNAIAHNALPGVWEVAGLSHPNEMIIEVQVAVPYPEQVREEEVLAVLPFGRKTLTVESGGMIVQGRAIPELNDKNDEMLIAIAAVTVLIENE”, “not failed”; to “MARPQDPPRGFFPFGNPFKNLSSKNSVLSSKLLPLLNNFETNLASSISKLVPKEKSDILTVSWMKQAMESLCETHNGIKTLITDLELPVSDWEDKWVDVYLDISVKLLDLCNAFSSELTRLNQGHLLLQFALHNLEANSPQNLSKAQSSLDSWKQHIVSKNPRIENCRAILSSLVQTLNLPKVKNSAKGKVLMRALYGVKVKTLYISGVFAAAFSGSSQNLMYLTVSNELPWAQSFMEVQNTMNAEIKNIFLSDGLTVLKELEAVASGVKKLYPAIQQGSIDPISLQPLKDSVTELSNGIDLVSKEVDCFFKILLSGRDTLLENLRSMGASTLQATSPKKAAGKNYRGF”, “failed”. To “MARRNRGVTRRERPNLLITGTPGTGKSTTASALAEATNLRYICIGDLVKEKEFYHGWDNELECHFINEDSVIDELDDAMIEGGNIVDYHGCDFFPQRWFDRVVVLRTENSVLYDRLTNSKVLIVFSQPTKAGVIQEPSLVTTFNAKCIKSYSKKHMTVMMRKLSLNYKGEAMLAKTVFPRGLLVLRSFSSVASKTLLKVGDVLRETRVFSSEDIKAYAEVSHDWNPLHFDPESARKAGFENRLVHGMLVSSMFPRIISAHFPGAVYVSQSLHFRSPVYIGDEILGLVQAIALRETKNKYIVKFSTKCFKNHNELVVIDGEATAILPNLDMLQKSPSE” belongs “failed”.

With “MARRPFSSQSLVLIVIAIAINMIGGQLISMLKLPIFLDSIGTLISAVLLGPFIGMLTGLLTNLLWGLLTDPIAAAFAPVAMVIGLVAGWLARAGWFRTLPKVIVSGVVITLAVTLVAVPLRTALFGGVTGSGADLFVAWMHSMGQNLVESVAITVIGANLVDKILTAIIVWVLLRQLPLRTTRHFPAMSAVR”, the protein production result is reported as “failed”. As to “MARTIENMAKPASDMPPYDKAAALRGLAGARRVALLMAPRLGDTLLMMNMARNLAAHGREVSIFGDYIHGLRDWFPGLDIRPSLSEEQAGQVLPGYDCAAQMHVGWPYALHAHQPNYFYYDAHVAITGRGFVKLFQIRDFCREQLGLAQAGADNGLRPPPQVQPHRSHPRRVALHPTSTGAQRCWAPRHFKELGLRLLHEGYEPNYIVAPHERAEWSWVLDHGLHLPQFPSLSEVAGFIHASGWFIGNESGIGHLASNVGVPTLSLTGRPTRTRAWRPAWSTSRIVYPALIPGGRWRDRLWREWLSPRRVMSAFHKLQADDRRQPVGVPWGKI”, the protein production result is “failed”. The entry for “MARVLVDFQPVGRRVEVDAGQTILSAIQQLGLSLGAGGLTAPCGGRGLCGRCRVRIASGEVGEVNPAERRFLTPAQLEKGYRLACQATVIGPVKVEIPPESMLGVQKLQVEGLDIAVTPEPPVKRYNLPLSKTTIENPLPLWQQVTGELEATYGLDRPGVDFGLAREWKPMATEGECVVTVRGPEVINIYTGRLAPPPVGLAVDLGTTKVAGFLINLETGATLAADGIMNPQITYGEDVMARLGYALEGEEEYRRIQEVEIEGLNRLAATLAAKAGVATTDIEEAVIVGNTAMHHLLLHLPVEQLARAPYVPALTTPVEIKTRNLGLNLSPGAFVYLQPVIAGFVGGDHVAMILGSRIDEARKVTLGLDIGTNTEIVLSYGGKMLSCSCASGPAFEGAHIAQGMRAVTGAIAAVRLSDDGRDVFWESIGGVPPLGICGSGILDAVAELYRTGILNASGRLDLNHPRVRRPAGGGPPEFLLVPAAETGIDGDLVVTQKDINEIQLAKAAIATGTLLLLEAAGLTVKDLEEVVVAGAFGTHLKLESAITIGMFPNLPLTAFRQVGNAAGTGARLALLSLTERKRGEAIARQVGYLELMTRPSFHEVYVKSLLLP” is “failed”.

As for “MARVRFENKRVNMSKLSQFGFEPNQNGQYQFRILIMQGQFEMIIELNTDGSLNTTLTDTTTSEVYVLHLTSQAHGQFVGQVAQAYQDVLYNIEQHCYDNDVFQSTPERKLIAQVKAAYGDDLEFLWPKFPQNAVWRRSDTHKWYGALLTVTSDKLALPGATHVVTVLDLRARPEDLSMLIDGQHYLPGYHMNKKHWYSILLDDVVPLATIMDDVKVSYMLAKLEHHHHHH”, the protein production entry is on record as “not failed”.

For the sequence “MARYHIETYGCTSNRGESRDIERRLRDAGHHKVETAADADVAILNTCTVVEKTERNMLRRAKELADETADLIVTGCMALAQGEAFADADVDAQVLHWDDVPEAVTNGECPTTTPDAEPILDGVVGILPIARGCMSNCSYCITKQATGRVDSPPVEENVEKARALVHAGAKEIRITGQDTGVYGWDTGERKLPELLERIATEIEGEFRVRVGMANPGGVHGIREELAAVFAEHDEIYNFLHAPVQSGSDDVLADMRRQHEVSQYRDIVETFNDTLGEWTLSTDFIVGFPTEDDDDHEASMDLLRETRPEKINVTRFSKRPGTDAAELKGLGGQTKKDRSKAMTELKMDVVGEAHESMVGTRRDVLVVEEGTGDSVKCYDGAYRQVIVQNATDHGLEPGDFATVEVTSHQTVYAFAEPVDAAAVDDGPAETTAD”, the protein production entry is given as “failed”. To “MARYINITLEKRGVTCKALLLDDVAPRTSKAVWDALPQSSQVFHGKYARNEIYNLVPAFAPKEPGAENTTVTPIPGDVCYFTFTSNDLKTPSHGYEADSGTDEVQTIVDLAVFYGRNNLLLNGDTGWVPGNVFATIVEGLDEMAAACQDIWMGGARDETLTFSRAEDTA” belongs “not failed”.

On to “MASAHTTQTPFNRLLLTGAAGGLGKVLRETLRPYSHILRLSDIAEMAPAVGDHEEVQVCDLADKDAVHRLVEGVDAILHFGGVSVERPFEEILGANICGVFHIYEAARRHGVKRVIFASSNHVIGFYKQNETIDAHSPRRPDSYYGLSKSYGEDMASFYFDRYGIETVSIRIGSSFPEPQNRRMMSTWLSFDDLTRLLERALYTPDVGHTVVYGVSDNKTVWWDNRFASKLDYAPKDSSEVFRAKVDAQPMPADDDPAMVYQGGAFVASGPFGDK”, for which the protein production entry is “failed”.
